# Measurements: the supplement of paper PMC9170038
# Legend:
# MS2 coat protein [1] = assay: apparent KD of MS2 coat protein, switch ON state; designed switch direction (-1 OFF switch, 1 ON switch): -1; higher = weaker reporter binding; conditions: FMN input: 0 or 200 uM; Eterna round: R93 (includes R88 designs)
# Method in brief: (§1)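 Apparent KD is reported per design as the median of normalised binding-curve fits across its clusters. The RNA switches were made by on-chip transcription from Illumina sequencing clusters. SNAP-549-labelled MS2 coat protein was then added in twofold steps (0.7 or 1.5 nM to 3 µM; 0.8–1.5 h to 10–20 min per step) in 100 mM Tris-HCl pH 7.5, 80 mM KCl, 4 mM MgCl2, without or with constant ligand.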
# MS2 coat protein [2] = assay: apparent KD of MS2 coat protein, switch OFF state (with FMN for OFF switches, without FMN for ON switches); designed switch direction (-1 OFF switch, 1 ON switch): -1; higher = weaker reporter binding; conditions: FMN input: 0 or 200 uM; Eterna round: R93 (includes R88 designs)
# Method in brief: as §1
Sequence,apparent KD of MS2 coat protein (MS2 coat protein [1]) [nM],apparent KD of MS2 coat protein (MS2 coat protein [2]) [nM]
AAAAAGGUAGGAUAUGCAAAAAAUAAUUUAAAAAAAAAAAAACAUGAGGAUCACCCAUGUAGAAGGACCAAAAA [Design 2.0],25.9,28.8
AAAAAGUCAGGAUAUCUGGAUAGGAAAAAGAAAACCUAUCCAGAGAAGGGACAUGAGGAUCACCCAUGUAAAAA [JL cataway mod 1],49.2,42.4
AAAAAGUGAGGAUAUACGGUGAGGAGUAGACACAACCUGGCGUAGAAGGCACAUGAGGAUCACCCAUGUCCAAA [EX4 Malc#13],37.3,47.8
AAAAAGUGAGGAUAUGCGCUGUGGAGUAGACACGACCAGUCGUAGAAGGCACAUGAGGAUCACCCAUGUUCAAA [EX4 Malc#21],27.4,25.3
AAAAAUCGAGGAUAUACAUGAGGAUCACCCAUGUAAAAAAAAAAAAAGGGAAAAAAAAGUAGAAGGCGAAAAAA [Sekhemre-Heruhirmaat Intef VII],58,30
AAAAAUGGAGGAUAUACAUGAGGAUCACCCAUGUGAGACCAAGAAAAAGAAAAAGAAAGUAGAAGGCCAUAAAA [Ex 3 May 24],24.5,152
AAAACACAUGAGGAUCACCCAUGUGAGGAUAUGCAUAAAAAAAAAAAAAAAAAAAAAUGCAGAAGGCACAUAAA [jn_camden],21,41.3
AAAACGUGAGGAUAUGCACCAAAAAAGGUAAAACGGGUACGACAUGAGGAUCACCCAUGUAGAAGGCACGAAAA [Frodo Flailing 10 - Jieux - Exclusion 2],46,107
AAAACUGGAGGAUAUACGAACAUGUCAAAAGACGUGAAGGGACAUGAGGAUCACCCAUGUAGAAGGCUAGAAAA [JL Stem Breaker 10],52.3,34.2
AAAAGCACAGGAUAUACAAGGAUAUGACGAAAGUCAUAAAAACAUGAGGAUCACCCAUGUAGAAGGGUGCAAAA [Mod of Meechl's... 64% 3],206,136
AAAAGGAUAGGAUAUACAUGAGGAUCACCCAUGUUUAUAAAUAAAAGAAAUAAAGAAAGUAGAAGGGUCAAGAA [LROPPY Exclusion 3 - v07_deltaG=3.4],19.6,22.4
AAAAGGUGAGGAUAUACAUGAGGAUCACCCAUGUAGAAAGGAAGUGUAAAAAAAAAGUGUAGAAGGCAUCAUGA [MS2 Riboswitches On Chip Exclusion 3 wbt3],39.2,48
AAAAGGUUAGGAUAUGCGUGGAAAAAGUGUAUCUAAAAAAAACAUGAGGAUCACCCAUGUAGAAGGGACUUAAA [Banishment 5 - Jieux - Exclusion 2],49.7,37.1
AAAAUACAUGAGGAUCACCCAUGUUAGGAUAUCGGAUAAAUAAAAUAAAAUAAAAUAACGAGAAGGGACAAUAA [Exclusion1 Malc#2],24.6,31.6
AAAAUGUCAGGAUAUGUACGAAAAAAUAAAAAAAUAAAAGUACAGAAGGGACAUGAGGAUCACCCAUGUCAGGG [EX4 392: Minimal 4],97.9,74.6
AAACAACAUGAGGAUCACCCAUGUCAGGAUAUGAACGAAAUAAAAUAAAAAUAAAAGUUCAGAAGGGACGAAAA [Mat - Exclusion 1 - Eli mod - D18],36.7,50.1
AAACCACAUGAGGAUCACCCAUGUAAGGAUAUGAACGAAAUAAAAUAAAAAUAAAAGUUCAGAAGGUACAAAAA [Mat - Exclusion 1 - Eli mod - D22],22.6,22.1
AAACCACAUGAGGAUCACCCAUGUCAGGAUAUGAACGAAAUAAAAUAAAAAUAAAAGUUCAGAAGGGACGAAAA [Mat - Exclusion 1 - Eli mod - D17],27.3,33.8
"AAAGGACGAGGAUAUACAUGAGGAUCACCCAUGUAAAAAACAUAACAAAAGAACUUAUGUAGAAGGCGUCCAAA [69%, Moding Meechl, 2]",54.4,403
AAAGGACGAGGAUAUACAUGAGGAUCACCCAUGUAAGAAGCAUAAUAAAAUAACUUAUGUAGAAGGCGUCCAAA [Mat - Exclusion 3 - Eli mod - D94],26,69

Sequence,apparent KD of MS2 coat protein (MS2 coat protein [1]) [nM],apparent KD of MS2 coat protein (MS2 coat protein [2]) [nM]
"AAAGGAUCAGGAUAUGUGUGGAAAAAGUGUGUCCCAAAAAAACAUGAGGAUCACCCAUGUAGAAGGGAUCCAAA [Mod 5 of Normal (20/19) by Nando, Round 1]",44.9,97.8
AAAGGUACAGGAUAUGCGUGGAAAAAGUGUAUUCACCAACGACAUGAGGAUCACCCAUGUAGAAGGGUACCAAA [Mod of wbt1 from round 1],25.9,31.8
AAAUGACAUGAGGAUCACCCAUGUCAGGAUAUGACUUGAAAAAAAAAAAAAAAACAUGUCAGAAGGGACAUGGA [Design 51: Sub-opt G],22.8,22.2
AACAGGACAGGAUAUACAUGAGGAUCACCCAUGUAGGAAACAAGCAGAGUACCAAACAGUAGAAGGGUCAUGGA [Ruby 29],31.3,50.3
AACAGGACAGGAUAUACAUGAGGAUCACCCAUGUAGGAAUUAAGCAGAGUACCAAACAGUAGAAGGGUCAUGGA [Ruby 27],33.3,44.7
AACAGGGCAGGAUAUACAUGAGGAUCACCCAUGUAGGAAACAAGCAGAGUACCAAAAAGUAGAAGGGUCAUGGA [Ruby 31],30.2,33.1
AACAGGUGAGGAUAUCUGGAUAGGAAAAAGAAAACCUAUCCAGAGAAGGCACAUGAGGAUCACCCAUGUAAAAA [JL cataway mod 8],78.5,96.2
AACAGUACAGGAUAUACAUGAGGAUCACCCAUGUAAAAAAAGGGUGGCGUACCACGAAGUAGAAGGGUACUGGA [Moding Maslow revisited (73) 11],187,81.3
AACAGUACAGGAUAUACAUGAGGAUCACCCAUGUCACAAUUAAGCAGCGUAACACAAAGUAGAAGGGUAAUGGA [Ruby 17],46.4,31.1
AACAGUACAGGAUAUACAUGAGGAUCACCCAUGUCACAGAAAUAAAACAAAAAUAAAAGUAGAAGGGUACUGGA [Ruby 41],31.2,36.7
AACAGUACAGGAUAUACAUGAGGAUCACCCAUGUGAAAAUUAAGUGGAGUACCACAAGGUAGAAGGGUACUGGA [Mat - Exclusion 3 - Eli mod - D61],27.7,101
AACAGUACAGGAUAUACAUGAGGAUCACCCAUGUGAAUAAAUAGUGGCGUACCACAAAGUAGAAGGGUACUGGA [Mat - Exclusion 3 - JL mod - D25],27.4,136
AACAGUACAGGAUAUACAUGAGGAUCACCCAUGUGAGAGAAAUAAAACAAAAAUAAAAGUAGAAGGGUACUGAA [Mat - Exclusion 3 - Eli mod - D67],31.8,36
AACAUGUUAGGAUAUAGAAGAAAAGAAAAGAAAGAAAAGAACUAGAAGGAACAUGAGGAUCACCCAUGUAAGAA [EteRNA is fun!],30.9,26.1
AACAUGUUAGGAUAUCAAAGAAAAGAAAAGAAAGAAAAGAAUGAGAAGGAACAUGAGGAUCACCCAUGUAAGAA [EteRNA is fun!],23,22.1
"AACUAGUCAGGAUAUACGAACAUGUCAAAAAACAUGAAGGGACAUGAGGAUCACCCAUGUAGAAGGGACUAGCA [74%, Web mod - With 3 less G's]",60.5,209
AACUGACAUGAGGAUCACCCAUGUCAGGAUAUGACUUGAUAGAAAAAAAAAUAUCAUGUCAGAAGGGACAUGGG [Design 56 :P Sub-opt I],21.4,12.8
AACUGACAUGAGGAUCACCCAUGUCAGGAUAUGAUAUGUAAAAAAAAAAAAAUACUUAUCAGAAGGGACAUGGG [Design 40: Sub-opt AB],15.3,15.4
AACUGACAUGAGGAUCACCCAUGUCAGGAUAUGAUUUGACGAAAAAAAACACGUCAUAUCAGAAGGGACAUGGA [Design 85: Sub-opt X],23.7,39.5
